Measurements published in patent US12194200B2, “Silk fibroin-based microneedles and methods of making the same” (Trustees of Tufts College, priority 2010, dated 2025).

Assay: HRP enzymatic activity detected with chromogenic substrate
Format: biochemical
Conditions: after silk processing and collagenase digestion
Description: The release kinetics of HRP from silk fibroin microneedles into the collagen hydrogels (N=3) were determined spectroscopically. The collagen hydrogel was selectively digested with collagenase. Subsequently, a colorimetric HRP enzyme activity assay was carried out as described later in the Exemplary Materials and Methods (FIG. 9C). […] Compared to the 2 hour and 8 hour water annealed devices, the untreated silk microneedles released in the same time period about 2.7±0.18 and about 5.6±0.99 times as much HRP, respectively. The beta sheet content in the silk fiborin microneedle samples was determined, e.g., by infrared spectroscopy, with results of ˜14%, ˜18% and ˜21% for the untreated, 2 hr-annealed and 8 hr-annealed silk fibroin microneedle samples, respectively. […]
HRP release model: The silk fibroin microneedles were loaded with 1 mg/ml of HRP (Sigma Aldrich). […] The collagen or gelatin slab measured approximately 2.5 mm in height. […] The needles were pierced through Parafilm (Parafilm M, Pechiney Plastic Packaging) membranes (polymer membrane in FIG. 8A) and subsequently applied to the hydrogel slabs to quantify the HRP release. […] To quantify the total amount of HRP release from the silk fibroin microneedles, a plurality of stacks, each of which included an array of silk fibroin microneedles, a polymer membrane and a collagen hydrogel, were prepared and evaluated at multiple time points. […]

For horseradish peroxidase [HRP], the “enzymatic activity of HRP” value was “retained activity”.
